Data: patent US6984657B1, “Indole derivatives as MCP-1 receptor antagonists” (AstraZeneca AB, priority 2000, dated 2006)
pEC50, pIC50, pKd: −log10 of the molar value.

What was measured:
[1] = biological target: T1, MCP-1 receptor B (CCR2B) (Homo sapiens, UniProt P41597); assay: hMCP-1 receptor binding assay (125I-MCP-1, CHO-CCR2B cell membranes); conditions: CHO-CCR2B membrane fragments
T1 construct: expressed in transfected cells; host or cells: CHO-K1 clone 7 (CHO-CCR2B), membrane fragments
T1 sequence (P41597 1-360 isoform P41597-2): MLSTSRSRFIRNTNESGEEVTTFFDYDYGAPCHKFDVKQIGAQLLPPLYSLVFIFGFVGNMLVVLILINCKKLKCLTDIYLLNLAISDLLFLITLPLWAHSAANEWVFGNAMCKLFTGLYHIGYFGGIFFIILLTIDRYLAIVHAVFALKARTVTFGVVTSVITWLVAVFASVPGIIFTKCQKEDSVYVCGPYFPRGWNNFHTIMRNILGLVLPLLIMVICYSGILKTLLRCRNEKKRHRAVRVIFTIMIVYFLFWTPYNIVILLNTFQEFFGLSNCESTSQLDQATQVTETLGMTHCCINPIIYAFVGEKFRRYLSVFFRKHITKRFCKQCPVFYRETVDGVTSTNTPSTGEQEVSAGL
Text: The MCP-1 receptor B (CCR2B) cDNA was cloned by PCR from THP-1 cell RNA using suitable oligonucleotide primers based on the published MCP-1 receptor sequences (Charo et al., 1994, Proc. Natl. Acad. Sci. USA, 91, 2752). The resulting PCR products were cloned into vector PCR-II™ (In Vitrogen, San Diego, Calif.). Error free CCR2B cDNA was subcloned as a Hind III-Not I fragment into the eukaryotic expression vector pCNA3 (In Vitrogen) to generate pCDNA3/CC-CKR2A and pCDNA3/CCR2B respectively.
Linearised pCDNA3/CCR2B DNA was transfected into CHO-K1 cells by calcium phosphate precipitation (Wigler et al., 1979, Cell, 16, 777). Transfected cells were selected by the addition of Geneticin Sulphate (G418, Gibco BRL) at 1 mg/ml, 24 hours after the cells had been transfected. Preparation of RNA and Northern blotting were carried out as described previously (Needham et al., 1995, Prot. Express. Purific., 6, 134). CHO-K1 clone 7 (CHO-CCR2B) was identified as the highest MCP-1 receptor B expresser.
CHO-CCR2B cells were grown in DMEM supplemented with 10% foetal calf serum, 2 mM glutamine, 1× Non-Essential Amino Acids, 1× Hypoxanthine and Thymidine Supplement and Penicillin-Streptomycin (at 50 μg streptomycin/ml, Gibco BRL). Membrane fragments were prepared using cell lysis/differential centrifugation methods as described previously (Siciliano et al., 1990, J. Biol. Chem, 265, 19658). […]

[2] = system: THP-1 cells; assay: hMCP-1 mediated chemotaxis of THP-1 cells; assay type: cell-based, human; conditions: 2 h at 37° C.
Protocol: In vitro chemotaxis assays were performed using the human monocytic cell line THP-1. Cell migration through polycarbonate membranes was measured by enumerating those passing through either directly by Coulter counting or indirectly by use of a colourimetric viability assay measuring the cleavage of a tetrazolium salt by the mitochondrial respiratory chain (Scudiero D. A. et al. 1988, Cancer Res., 48, 4827-4833). […]
In an alternative form of the above assay, fluorescently tagged cells can be used in order to assist in end point detection. […] At the end of the incubation, cells are washed off the upper face of the filter with phosphate buffered saline, the filter removed from the plate and the number of cells attracted to either the underside of the filter or the lower well estimated by reading fluorescence at 485 nm excitation, 538 nm emission wavelengths (fmax, Molecular Devices). The data was input into a spreadsheet, corrected for any random migration in the absence of chemoattractant and the average fluorescence values, standard error of the mean, percentage inhibition and IC50 of compounds under test and significance tests can be calculated. […]

[3] = system: THP-1 cells; assay: MCP-1 mediated calcium flux in THP-1 cells; assay type: cell-based, human; conditions: stimulation of THP-1 cells with hMCP-1, FURA-2, approximate; read-out: EC50 of the rise in [Ca2+]i
Protocol: The human monocytic cell line THP-1 was grown in a synthetic cell structure medium RPMI 1640 supplemented with 10% foetal calf serum, 6 mM glutamine and Penicillin-Streptomycin (at 50 μg streptomycin/ml, Gibco BRL). THP-1 cells were washed in HBSS (lacking Ca^2+ and Mg^2+)+1 mg/ml BSA and resuspended in the same buffer at a density of 3×10^6 cells/ml. The cells were then loaded with […] FURA-2/AM for 30 min at 37° C., washed twice in HBSS, and resuspended at 1×10^6 cells/ml. THP-1 cell suspension (0.9 ml) was added to a 5 ml disposable cuvette containing a magnetic stirrer bar and 2.1 ml of prewarmed (37° C.) HBSS containing 1 mg/ml BSA, 1 mM MgCl2 and 2 mM CaCl2. The cuvette was placed in a fluorescence spectrophotometer (Perkin Elmer, Norwalk, Conn.) and preincubated for 4 min at 37° C. with stirring. Fluorescence was recorded over 70 sec and cells were stimulated by addition of hMCP-1 to the cuvette after 10 sec. [Ca^2+]i was measured by excitation at 340 nm and 380 nm alternatively and subsequent measurement of the intensity of the fluorescence emission at 510 nm. […] Rmax is the maximal fluorescence ratio determined after addition of […] Ionomycin, Rmin is the minimal ratio determined by the subsequent addition of a Ca^2+ free solution containing 5 mM EGTA, and Sf2/Sb2 is the ratio of fluorescence value at 380 nm excitation determined at Rmin and Rmax, respectively. […]

MCP-1: Human Monocyte Chemoattractant Protein-1, a C—C chemokine; ligand of the CCR2 receptor
pIC50 ([1]; cold competition of unlabeled MCP-1 with 100 pM 125I-labeled MCP-1): 9.96 | pKd ([1]; equilibrium binding, room temperature): 9.92 | concentration of maximal cell migration (biphasic response) [2]: 0.5-1.0 nm | pEC50 [3]: ~8.70
